target: T1, soluble human CD40 extracellular domain (human, UniProt P25942 21-193); assay: SPR, Ab captured from supernatant on protein A, hCD40 ECD analyte
T1 construct: Produced in house; also called hCD40; soluble hCD40 extracellular domain
Procedure: The titer data (Table 21) were used to normalize the antibody concentration in each supernatant to 3 μg/ml, and these antibodies were captured out of the supernatants on a protein A CMS Series S sensor chip (GE Healthcare), and tested for binding to two concentrations (5 nM and 50 nM) of soluble hCD40 extracellular domain.
CD40 binding SPR of antibody supernatants: Surface plasmon resonance (SPR) studies were conducted on a BIAcore™ T200 instrument (GE Healthcare, Chicago Ill.). A Series S Protein A sensor chip (GE Healthcare, Chicago Ill.) was equilibrated with SPR running buffer of 10 mM NaPO₄, 130 mM NaCl, 0.05% tween 20, (PBS-T) pH 7.2 at 25° C. The 96 antibody supernatants were normalized to a concentration of 3 μg/ml by diluting with PBS-T using a PerkinElmer JANUS® G3 system (PerkinElmer, Akron, Ohio). After priming the system, the 3 μg/ml antibody samples were captured on the protein A surface for 30 s at 10 μl/min Binding of 50 nM and 500 nM human CD40 extracellular domain (produced in house) was evaluated using association time of 180 s at 30 μl/min, followed by a dissociation time of 180 s at 30 μl/min Regeneration between cycles was accomplished using two 15 s injections of 10 mM glycine pH 1.5. […] Data were analyzed using BIAcore™ T200 evaluation software by fitting to a 1:1 Langmuir model.

T1 sequence (P25942 21-193 limits assumed): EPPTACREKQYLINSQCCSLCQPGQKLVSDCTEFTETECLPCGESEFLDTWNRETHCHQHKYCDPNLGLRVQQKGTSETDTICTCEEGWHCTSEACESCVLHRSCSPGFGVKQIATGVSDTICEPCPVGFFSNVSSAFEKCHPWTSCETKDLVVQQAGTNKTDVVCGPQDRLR

Binder	Kd [nM]
M72 (HC-R38Q,K63Q,R67Q / LC-R61Q) (antibody, human IgG1, kappa, V domains shown, IgG1-P238K; also called HC8/LC5) VH: QVQLVQSGAEVKKPGSSVKVSCKASGYAFTSYWMHWVQQAPGQGLEWMGQINPTTGRSQYNEQFKTQVTITADKSTSTAYMELSSLRSEDTAVYYCARWGLQPFAYWGQGTLVTVSS VL: DIQMTQSPSFLSASVGDRVTITCKASQDVSTAVAWYQQKPGKAPKLLIYSASYRYTGVPSQFSGSGSGTDFTLTISSLQPEDFATYYCQQHYSTPWTFGGGTKVEIKR	2.9
M74 (HC-R67E / LC-R61Q) (antibody, human IgG1, kappa, V domains shown, IgG1-P238K; also called HC10/LC5) VH: QVQLVQSGAEVKKPGSSVKVSCKASGYAFTSYWMHWVRQAPGQGLEWMGQINPTTGRSQYNEKFKTEVTITADKSTSTAYMELSSLRSEDTAVYYCARWGLQPFAYWGQGTLVTVSS VL: DIQMTQSPSFLSASVGDRVTITCKASQDVSTAVAWYQQKPGKAPKLLIYSASYRYTGVPSQFSGSGSGTDFTLTISSLQPEDFATYYCQQHYSTPWTFGGGTKVEIKR	2.9
M91 (HC-R57E / LC-K107Q,R108Q) (antibody, human IgG1, kappa, IgG1-P238K; also called HC11/LC6) heavy: not shown light: DIQMTQSPSFLSASVGDRVTITCKASQDVSTAVAWYQQKPGKAPKLLIYSASYRYTGVPSRFSGSGSGTDFTLTISSLQPEDFATYYCQQHYSTPWTFGGGTKVEIQQTVAAPSVFIFPPSDEQLKSGTASVVCLLNNFYPREAKVQWKVDNALQSGNSQESVTEQDSKDSTYSLSSTLTLSKADYEKHKVYACEVTHQGLSSPVTKSFNRGEC	9.6
M79 (HC-R67Q / LC-R61Q) (antibody, human IgG1, kappa, V domains shown, IgG1-P238K; also called HC15/LC5) VH: QVQLVQSGAEVKKPGSSVKVSCKASGYAFTSYWMHWVRQAPGQGLEWMGQINPTTGRSQYNEKFKTQVTITADKSTSTAYMELSSLRSEDTAVYYCARWGLQPFAYWGQGTLVTVSS VL: DIQMTQSPSFLSASVGDRVTITCKASQDVSTAVAWYQQKPGKAPKLLIYSASYRYTGVPSQFSGSGSGTDFTLTISSLQPEDFATYYCQQHYSTPWTFGGGTKVEIKR	3.5
M89 (HC-K63Q,R67E / LC-K107Q,R108Q) (antibody, human IgG1, kappa, IgG1-P238K; also called HC9/LC6) heavy: not shown light: DIQMTQSPSFLSASVGDRVTITCKASQDVSTAVAWYQQKPGKAPKLLIYSASYRYTGVPSRFSGSGSGTDFTLTISSLQPEDFATYYCQQHYSTPWTFGGGTKVEIQQTVAAPSVFIFPPSDEQLKSGTASVVCLLNNFYPREAKVQWKVDNALQSGNSQESVTEQDSKDSTYSLSSTLTLSKADYEKHKVYACEVTHQGLSSPVTKSFNRGEC	3.3
M93 (HC-E46K,E62K / LC-K107Q,R108Q) (antibody, human IgG1, kappa, IgG1-P238K; also called HC13/LC6) heavy: not shown light: DIQMTQSPSFLSASVGDRVTITCKASQDVSTAVAWYQQKPGKAPKLLIYSASYRYTGVPSRFSGSGSGTDFTLTISSLQPEDFATYYCQQHYSTPWTFGGGTKVEIQQTVAAPSVFIFPPSDEQLKSGTASVVCLLNNFYPREAKVQWKVDNALQSGNSQESVTEQDSKDSTYSLSSTLTLSKADYEKHKVYACEVTHQGLSSPVTKSFNRGEC	8.1
M77 (HC-E46K,E62K / LC-R61Q) (antibody, human IgG1, kappa, V domains shown, IgG1-P238K; also called HC13/LC5) VH: QVQLVQSGAEVKKPGSSVKVSCKASGYAFTSYWMHWVRQAPGQGLKWMGQINPTTGRSQYNKKFKTRVTITADKSTSTAYMELSSLRSEDTAVYYCARWGLQPFAYWGQGTLVTVSS VL: DIQMTQSPSFLSASVGDRVTITCKASQDVSTAVAWYQQKPGKAPKLLIYSASYRYTGVPSQFSGSGSGTDFTLTISSLQPEDFATYYCQQHYSTPWTFGGGTKVEIKR	7.9
M90 (HC-R67E / LC-K107Q,R108Q) (antibody, human IgG1, kappa, IgG1-P238K; also called HC10/LC6) heavy: not shown light: DIQMTQSPSFLSASVGDRVTITCKASQDVSTAVAWYQQKPGKAPKLLIYSASYRYTGVPSRFSGSGSGTDFTLTISSLQPEDFATYYCQQHYSTPWTFGGGTKVEIQQTVAAPSVFIFPPSDEQLKSGTASVVCLLNNFYPREAKVQWKVDNALQSGNSQESVTEQDSKDSTYSLSSTLTLSKADYEKHKVYACEVTHQGLSSPVTKSFNRGEC	3
M88 (HC-R38Q,K63Q,R67Q / LC-K107Q,R108Q) (antibody, human IgG1, kappa, IgG1-P238K; also called HC8/LC6) heavy: not shown light: DIQMTQSPSFLSASVGDRVTITCKASQDVSTAVAWYQQKPGKAPKLLIYSASYRYTGVPSRFSGSGSGTDFTLTISSLQPEDFATYYCQQHYSTPWTFGGGTKVEIQQTVAAPSVFIFPPSDEQLKSGTASVVCLLNNFYPREAKVQWKVDNALQSGNSQESVTEQDSKDSTYSLSSTLTLSKADYEKHKVYACEVTHQGLSSPVTKSFNRGEC	3.2
M84 (HC-K12E / LC-K107Q,R108Q) (antibody, human IgG1, kappa, IgG1-P238K; also called HC4/LC6) heavy: not shown light: DIQMTQSPSFLSASVGDRVTITCKASQDVSTAVAWYQQKPGKAPKLLIYSASYRYTGVPSRFSGSGSGTDFTLTISSLQPEDFATYYCQQHYSTPWTFGGGTKVEIQQTVAAPSVFIFPPSDEQLKSGTASVVCLLNNFYPREAKVQWKVDNALQSGNSQESVTEQDSKDSTYSLSSTLTLSKADYEKHKVYACEVTHQGLSSPVTKSFNRGEC	3.3
M76 (HC-R57E,K74Q / LC-R61Q) (antibody, human IgG1, kappa, V domains shown, IgG1-P238K; also called HC12/LC5) VH: QVQLVQSGAEVKKPGSSVKVSCKASGYAFTSYWMHWVRQAPGQGLEWMGQINPTTGESQYNEKFKTRVTITADQSTSTAYMELSSLRSEDTAVYYCARWGLQPFAYWGQGTLVTVSS VL: DIQMTQSPSFLSASVGDRVTITCKASQDVSTAVAWYQQKPGKAPKLLIYSASYRYTGVPSQFSGSGSGTDFTLTISSLQPEDFATYYCQQHYSTPWTFGGGTKVEIKR	14.8
M87 (HC-K23E / LC-K107Q,R108Q) (antibody, human IgG1, kappa, IgG1-P238K; also called HC7/LC6) heavy: not shown light: DIQMTQSPSFLSASVGDRVTITCKASQDVSTAVAWYQQKPGKAPKLLIYSASYRYTGVPSRFSGSGSGTDFTLTISSLQPEDFATYYCQQHYSTPWTFGGGTKVEIQQTVAAPSVFIFPPSDEQLKSGTASVVCLLNNFYPREAKVQWKVDNALQSGNSQESVTEQDSKDSTYSLSSTLTLSKADYEKHKVYACEVTHQGLSSPVTKSFNRGEC	4.3
M92 (HC-R57E,K74Q / LC-K107Q,R108Q) (antibody, human IgG1, kappa, IgG1-P238K; also called HC12/LC6) heavy: not shown light: DIQMTQSPSFLSASVGDRVTITCKASQDVSTAVAWYQQKPGKAPKLLIYSASYRYTGVPSRFSGSGSGTDFTLTISSLQPEDFATYYCQQHYSTPWTFGGGTKVEIQQTVAAPSVFIFPPSDEQLKSGTASVVCLLNNFYPREAKVQWKVDNALQSGNSQESVTEQDSKDSTYSLSSTLTLSKADYEKHKVYACEVTHQGLSSPVTKSFNRGEC	13.4
M83 (HC-K12Q,K13Q,K23Q / LC-K107Q,R108Q) (antibody, human IgG1, kappa, IgG1-P238K; also called HC3/LC6) heavy: not shown light: DIQMTQSPSFLSASVGDRVTITCKASQDVSTAVAWYQQKPGKAPKLLIYSASYRYTGVPSRFSGSGSGTDFTLTISSLQPEDFATYYCQQHYSTPWTFGGGTKVEIQQTVAAPSVFIFPPSDEQLKSGTASVVCLLNNFYPREAKVQWKVDNALQSGNSQESVTEQDSKDSTYSLSSTLTLSKADYEKHKVYACEVTHQGLSSPVTKSFNRGEC	3.6
M73 (HC-K63Q,R67E / LC-R61Q) (antibody, human IgG1, kappa, V domains shown, IgG1-P238K; also called HC9/LC5) VH: QVQLVQSGAEVKKPGSSVKVSCKASGYAFTSYWMHWVRQAPGQGLEWMGQINPTTGRSQYNEQFKTEVTITADKSTSTAYMELSSLRSEDTAVYYCARWGLQPFAYWGQGTLVTVSS VL: DIQMTQSPSFLSASVGDRVTITCKASQDVSTAVAWYQQKPGKAPKLLIYSASYRYTGVPSQFSGSGSGTDFTLTISSLQPEDFATYYCQQHYSTPWTFGGGTKVEIKR	3
M85 (HC-K12E,K13Q,K23E / LC-K107Q,R108Q) (antibody, human IgG1, kappa, IgG1-P238K; also called HC5/LC6) heavy: not shown light: DIQMTQSPSFLSASVGDRVTITCKASQDVSTAVAWYQQKPGKAPKLLIYSASYRYTGVPSRFSGSGSGTDFTLTISSLQPEDFATYYCQQHYSTPWTFGGGTKVEIQQTVAAPSVFIFPPSDEQLKSGTASVVCLLNNFYPREAKVQWKVDNALQSGNSQESVTEQDSKDSTYSLSSTLTLSKADYEKHKVYACEVTHQGLSSPVTKSFNRGEC	3.3
M78 (HC-K74T / LC-R61Q) (antibody, human IgG1, kappa, V domains shown, IgG1-P238K; also called HC14/LC5) VH: QVQLVQSGAEVKKPGSSVKVSCKASGYAFTSYWMHWVRQAPGQGLEWMGQINPTTGRSQYNEKFKTRVTITADTSTSTAYMELSSLRSEDTAVYYCARWGLQPFAYWGQGTLVTVSS VL: DIQMTQSPSFLSASVGDRVTITCKASQDVSTAVAWYQQKPGKAPKLLIYSASYRYTGVPSQFSGSGSGTDFTLTISSLQPEDFATYYCQQHYSTPWTFGGGTKVEIKR	4
M82 (HC-K12Q,K13Q / LC-K107Q,R108Q) (antibody, human IgG1, kappa, IgG1-P238K; also called HC2/LC6) heavy: not shown light: DIQMTQSPSFLSASVGDRVTITCKASQDVSTAVAWYQQKPGKAPKLLIYSASYRYTGVPSRFSGSGSGTDFTLTISSLQPEDFATYYCQQHYSTPWTFGGGTKVEIQQTVAAPSVFIFPPSDEQLKSGTASVVCLLNNFYPREAKVQWKVDNALQSGNSQESVTEQDSKDSTYSLSSTLTLSKADYEKHKVYACEVTHQGLSSPVTKSFNRGEC	3.2
M75 (HC-R57E / LC-R61Q) (antibody, human IgG1, kappa, V domains shown, IgG1-P238K; also called HC11/LC5) VH: QVQLVQSGAEVKKPGSSVKVSCKASGYAFTSYWMHWVRQAPGQGLEWMGQINPTTGESQYNEKFKTRVTITADKSTSTAYMELSSLRSEDTAVYYCARWGLQPFAYWGQGTLVTVSS VL: DIQMTQSPSFLSASVGDRVTITCKASQDVSTAVAWYQQKPGKAPKLLIYSASYRYTGVPSQFSGSGSGTDFTLTISSLQPEDFATYYCQQHYSTPWTFGGGTKVEIKR	10.5
M86 (HC-K12V,K19S,K23A / LC-K107Q,R108Q) (antibody, human IgG1, kappa, IgG1-P238K; also called HC6/LC6) heavy: not shown light: DIQMTQSPSFLSASVGDRVTITCKASQDVSTAVAWYQQKPGKAPKLLIYSASYRYTGVPSRFSGSGSGTDFTLTISSLQPEDFATYYCQQHYSTPWTFGGGTKVEIQQTVAAPSVFIFPPSDEQLKSGTASVVCLLNNFYPREAKVQWKVDNALQSGNSQESVTEQDSKDSTYSLSSTLTLSKADYEKHKVYACEVTHQGLSSPVTKSFNRGEC	3.7
